Measured values reported in US20250171549A1 (Amgen, published 2025).

T1: cynomolgus monkey CCR8 (T4R; comprising arginine at position four) (cynomolgus monkey, UniProt O97665 1-356 (rhesus entry))
T1 construct: Expressed on CHO cells; also called cy CCR8 (T4R); Cynomolgus monkey Mauritian origin T4R CCR8
T1 chain: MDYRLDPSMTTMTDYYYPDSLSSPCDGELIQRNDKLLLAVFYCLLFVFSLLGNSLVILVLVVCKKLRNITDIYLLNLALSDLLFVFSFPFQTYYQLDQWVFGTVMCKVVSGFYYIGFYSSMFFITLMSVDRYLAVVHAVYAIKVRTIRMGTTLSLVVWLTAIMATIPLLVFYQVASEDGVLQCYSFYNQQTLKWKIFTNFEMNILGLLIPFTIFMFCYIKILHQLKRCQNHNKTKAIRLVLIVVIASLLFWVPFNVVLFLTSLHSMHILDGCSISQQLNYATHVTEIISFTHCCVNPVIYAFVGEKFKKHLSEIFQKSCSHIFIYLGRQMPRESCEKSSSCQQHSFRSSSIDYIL


Legend:
human CCR8 [1] = biological target: T2, human CCR8 (human, UniProt P51685 1-355); assay: cell-based or functional assay
T2 sequence (P51685 whole entry): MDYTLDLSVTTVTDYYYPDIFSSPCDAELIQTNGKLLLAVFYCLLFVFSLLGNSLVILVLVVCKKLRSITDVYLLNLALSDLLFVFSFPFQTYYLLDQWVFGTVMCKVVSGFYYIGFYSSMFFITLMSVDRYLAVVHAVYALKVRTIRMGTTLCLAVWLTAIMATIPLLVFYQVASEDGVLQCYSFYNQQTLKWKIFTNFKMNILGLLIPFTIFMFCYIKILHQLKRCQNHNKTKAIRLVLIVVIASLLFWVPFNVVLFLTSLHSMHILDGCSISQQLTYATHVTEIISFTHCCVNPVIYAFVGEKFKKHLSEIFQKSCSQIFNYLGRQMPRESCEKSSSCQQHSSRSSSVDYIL

human CCR8 [2] = biological target: T2, human CCR8; assay: cell-based or functional assay; remark: listed apart in the source
[3] = biological target: T3, cynomolgus monkey CCR8 (comprising threonine at position four) (cynomolgus monkey, UniProt O97665 1-356 (rhesus entry)); assay: flow cytometry titration on CHO cells
T3 construct: also called Cyno CCR8; cynomolgus CCR8
Experimental: (§1) Bound anti-CCR8 antibody molecules were detected with Alexa Fluor 647 conjugated Goat anti-Human IgG (H+L). Cells were subsequently stained with Zombie Violet viability dye, fixed with 4% PFA on ice, and detected by fluorescence cytometry. Equilibrium dissociation constant (Kd) values were calculated by non-linear regression with the one site specific binding evaluation tool of the GraphPad Prism software. “N.D.” means not detectable.

[4] = biological target: T1, cynomolgus monkey CCR8 (T4R; comprising …); assay: flow cytometry titration on CHO cells
Experimental: as §1

[5] = biological target: T1, cynomolgus monkey CCR8 (T4R; comprising …); assay: flow cytometry titration on CHO cells; N.D. means not detectable
Experimental: as §1

| Binder | Percent Inhibition (IC50 nM) of CCL1-dependent chemotaxis of HUT78 cells (human CCR8 [1]) [nM] | ADCC, Percent Non-Viable cells (EC50 pM), Donor 1 (human CCR8 [2]) [pM] | ADCC, Percent Non-Viable cells (EC50 pM), Donor 2 (human CCR8 [2]) [pM] | ADCC, Percent Non-Viable cells (EC50 pM), Donor 3 (human CCR8 [2]) [pM] | Kd [3] [nM] | Kd [4] [nM] | binding result [5] |
| --- | --- | --- | --- | --- | --- | --- | --- |
| Antibody 2.2 IgG1 (LC: F2I_P51S_H53Q_L103V_N148K, HC: K87N_S94N_V98A)(LC: Y25A, HC: A71L_D72K) (antibody, V domains shown, Afucosylated IgG1) VH: QVQLVESGGGVVQPGRSLRLSCAASGFTFSNYGMHWVRQAPGKGLEWVAVISYDGSNKFYLKSVKGRFTISRDNSKNTLYLQMNSLRAEDTAVYYCARAGGIGRFDYWGQGTLVTVSS VL: DIVMTQTPLSLSVTPGQPASISCKASQSLLHSDGKTYLFWYLQKPGQSPQLLIYEVSNRFSGVPDRFSGSGSGTDFTLKISRVEAEDVGVYYCMQTLKLPLTFGGGTKVEIKR | 0.076 | < 0.256 | 6.04 | 1.8 | 0.399 | 0.989 |  |
| Antibody 1.1 IgG1 (LC: H45Q_S51P) (antibody, V domains shown, Afucosylated IgG1) VH: EVQLVESGGGLVKPGGSLRLSCAASGFTFSNARMGWVRQAPGKGLEWVGRIKSKTEGGTRDYAAPVKGRFTISRDDSKNTLYLQMNSLKTEDTAVYYCTSYSGVWGQGTMVTVSS VL: not shown |  | < 0.256 | 8.13 | 2.2 | 0.172 |  | no binding (tested: 0.005-100 nM) |
